This is an account of results in US20110014201A1.

The assay concerns the target Recombinant human IL-18 (Peprotech 200-18) (human) (UniProt Q14116). Briefly: cell-based or functional assay.

Chain of Recombinant human IL-18 (Peprotech 200-18) (human) (Q14116 37-193 limits assumed): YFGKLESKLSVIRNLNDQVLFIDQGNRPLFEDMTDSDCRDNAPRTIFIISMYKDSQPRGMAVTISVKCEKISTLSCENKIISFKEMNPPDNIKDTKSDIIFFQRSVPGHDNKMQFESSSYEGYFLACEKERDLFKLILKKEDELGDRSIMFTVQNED
Chain of recombinant IL-18BP/Fc chimera (R&D Systems, 119-BP) (O95998 31-194, change not shown): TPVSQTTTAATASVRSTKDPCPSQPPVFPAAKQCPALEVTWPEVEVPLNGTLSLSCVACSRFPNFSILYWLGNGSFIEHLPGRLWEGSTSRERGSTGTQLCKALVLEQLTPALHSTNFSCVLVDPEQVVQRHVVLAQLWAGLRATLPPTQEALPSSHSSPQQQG

“recombinant IL-18BP/Fc chimera (R&D Systems, 119-BP) (from UniProt O95998 31-194) (Fc fusion)”: the ED50, inhibition of INF-γ release by KG1 cells was found to be 0.52 nM.
